5 sequences from the supplement of paper PMC5998384 can be followed below.

The subject of series [1] is HeLa Kyoto. Briefly: solubility change mitosis vs G1/S (difference of NP-40 vs SDS log2 ratios) (log2 ratio difference); higher = more soluble in mitosis.
Series [2] has as its system HeLa Kyoto. Put plainly: solubility in G1/S (NP-40 vs SDS abundance) (log2 ratio); higher = more soluble. The conditions noted are these: cell cycle stage: G1/S.
The subject of series [3] is HeLa Kyoto. Briefly: melting temperature (median over replicates), in situ; higher = more thermally stable.
The test system of series [4] is HeLa Kyoto. Put plainly: thermal stability score vs G1/S (z-score of summed log2 fold changes over temperatures); higher = more thermally stable than in G1/S.
The mark [5] stands for this setting: cell cycle stage: early G1 (4.5 h after nocodazole release).
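Wherever melting temperature (median over replicates), in situ is given: HeLa Kyoto cells synchronized by double thymidine or nocodazole block, proteins quantified by TMT10plex mass spectrometry, three independent biological replicates.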
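Wherever solubility change mitosis vs G1/S (difference of NP-40 vs SDS log2 ratios) is given: synchronized HeLa Kyoto cells (double thymidine block for G1/S, nocodazole release for mitosis), protein amounts in NP-40 versus SDS lysates quantified by mass spectrometry, three biological replicates.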
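Wherever solubility in G1/S (NP-40 vs SDS abundance) is given: HeLa Kyoto cells arrested at G1/S by double thymidine block, proteins quantified by TMT10plex mass spectrometry in mild NP-40 versus SDS extracts, three biological replicates.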
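Wherever thermal stability score vs G1/S (z-score of summed log2 fold changes over temperatures) is given: synchronized HeLa Kyoto cells, proteins quantified by TMT10plex mass spectrometry, three biological replicates, mitosis taken 0.5 h after nocodazole release, G1/S directly after double thymidine block.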

As for “MSEEQFGGDGAAAAATAAVGGSAGEQEGAMVAATQGAAAAAGSGAGTGGGTASGGTEGGSAESEGAKIDASKNEEDEGHSNSSPRHSEAATAQREEWKMFIGGLSWDTTKKDLKDYFSKFGEVVDCTLKLDPITGRSRGFGFVLFKESESVDKVMDQKEHKLNGKVIDPKRAKAMKTKEPVKKIFVGGLSPDTPEEKIREYFGGFGEVESIELPMDNKTNKRRGFCFITFKEEEPVKKIMEKKYHNVGLSKCEIKVAMSKEQYQQQQQWGSRGGFAGRARGRGGGPSQNWNQGYSNYWNQGYGNYGYNSQGYGGYGGYDYTGYNNYYGYGDYSNQQSGYGKVSRRGGHQNSYKPY [HNRNPD]”, the “solubility change mitosis (log2)” value in the series with HeLa Kyoto [1] was 0.191. Moreover, the “solubility in G1/S (log2)” value with HeLa Kyoto [2] is 0.068. In addition, the melting temperature in the series with HeLa Kyoto [3] (cell cycle stage: G1/S) was 55.6 °C; with HeLa Kyoto [3] (cell cycle stage: mitosis), 54.9 °C. Besides, the thermal stability score with HeLa Kyoto [4] (setting [5]) was -3.11; with HeLa Kyoto [4] (cell cycle stage: mitosis), -2.98.
For the sequence “MSEGVDLIDIYADEEFNQDPEFNNTDQIDLYDDVLTATSQPSDDRSSSTEPPPPVRQEPSPKPNNKTPAILYTYSGLRNRRAAVYVGSFSWWTTDQQLIQVIRSIGVYDVVELKFAENRANGQSKGYAEVVVASENSVHKLLELLPGKVLNGEKVDVRPATRQNLSQFEAQARKRECVRVPRGGIPPRAHSRDSSDSADGRATPSENLVPSSARVDKPPSVLPYFNRPPSALPLMGLPPPPIPPPPPLSSSFGVPPPPPGIHYQHLMPPPPRLPPHLAVPPPGAIPPALHLNPAFFPPPNATVGPPPDTYMKASAPYNHHGSRDSGPPPSTVSEAEFEDIMKRNRAISSSAISKAVSGASAGDYSDAIETLLTAIAVIKQSRVANDERCRVLISSLKDCLHGIEAKSYSVGASGSSSRKRHRSRERSPSRSRESSRRHRDLLHNEDRHDDYFQERNREHERHRDRERDRHH [CPSF7]”, the “solubility change mitosis (log2)” value in the series on HeLa Kyoto [1] was 0.173. Besides, the “solubility in G1/S (log2)” value in the series on HeLa Kyoto [2] is -0.309. The melting temperature with HeLa Kyoto [3] (cell cycle stage: G1/S) amounted to 51.8 °C; with HeLa Kyoto [3] (cell cycle stage: mitosis), 52.1 °C. Moreover, the thermal stability score with HeLa Kyoto [4] (setting [5]) was -1.14; in the series on HeLa Kyoto [4] (cell cycle stage: mitosis), -2.91.
Turning to “MSEHVEPAAPGPGPNGGGGGPAPARGPRTPNLNPNPLINVRDRLFHALFFKMAVTYSRLFPPAFRRLFEFFVLLKALFVLFVLAYIHIVFSRSPINCLEHVRDKWPREGILRVEVRHNSSRAPVFLQFCDSGGRGSFPGLAVEPGSNLDMEDEEEEELTMEMFGNSSIKFELDIEPKVFKPPSSTEALNDSQEFPFPETPTKVWPQDEYIVEYSLEYGFLRLSQATRQRLSIPVMVVTLDPTRDQCFGDRFSRLLLDEFLGYDDILMSSVKGLAENEENKGFLRNVVSGEHYRFVSMWMARTSYLAAFAIMVIFTLSVSMLLRYSHHQIFVFIVDLLQMLEMNMAIAFPAAPLLTVILALVGMEAIMSEFFNDTTTAFYIILIVWLADQYDAICCHTSTSKRHWLRFFYLYHFAFYAYHYRFNGQYSSLALVTSWLFIQHSMIYFFHHYELPAILQQVRIQEMLLQAPPLGPGTPTALPDDMNNNSGAPATAPDSAGQPPALGPVSPGASGSPGPVAAAPSSLVAAAASVAAAAGGDLGWMAETAAIITDASFLSGLSASLLERRPASPLGPAGGLPHAPQDSVPPSDSAASDTTPLGAAVGGPSPASMAPTEAPSEVGS [TMEM259]”, the “solubility change mitosis (log2)” value in the series with HeLa Kyoto [1] is -0.025. Further, the “solubility in G1/S (log2)” value in the series on HeLa Kyoto [2] is -0.252. For the same sequence, the melting temperature with HeLa Kyoto [3] (cell cycle stage: G1/S) came out at 54.7 °C; in the series on HeLa Kyoto [3] (cell cycle stage: mitosis), 54.2 °C. For the same sequence, the thermal stability score in the series with HeLa Kyoto [4] (setting [5]) stood at 0.29; with HeLa Kyoto [4] (cell cycle stage: mitosis) it was 0.308.
As for “MSEKENNFPPLPKFIPVKPCFYQNFSDEIPVEHQVLVKRIYRLWMFYCATLGVNLIACLAWWIGGGSGTNFGLAFVWLLLFTPCGYVCWFRPVYKAFRADSSFNFMAFFFIFGAQFVLTVIQAIGFSGWGACGWLSAIGFFQYSPGAAVVMLLPAIMFSVSAAMMAIAIMKVHRIYRGAGGSFQKAQTEWNTGTWRNPPSREAQYNNFSGNSLPEYPTVPSYPGSGQWP [SCAMP4]”, the “solubility change mitosis (log2)” value in the series with HeLa Kyoto [1] was determined as 0.144. Further, the “solubility in G1/S (log2)” value in the series on HeLa Kyoto [2] was -0.117. Also, the figures for the melting temperature with HeLa Kyoto [3] (cell cycle stage: G1/S) and in the series with HeLa Kyoto [3] (cell cycle stage: mitosis) were 57 °C and 60.3 °C, respectively. Besides, the thermal stability score was -1.67 with HeLa Kyoto [4] (setting [5]) and -2.1 in the series with HeLa Kyoto [4] (cell cycle stage: mitosis).
As to “MSELPGDVRAFLREHPSLRLQTDARKVRCILTGHELPCRLPELQVYTRGKKYQRLVRASPAFDYAEFEPHIVPSTKNPHQLFCKLTLRHINKCPEHVLRHTQGRRYQRALCKYEECQKQGVEYVPACLVHRRRRREDQMDGDGPRPREAFWEPTSSDEGGAASDDSMTDLYPPELFTRKDLGSTEDGDGTDDFLTDKEDEKAKPPREKATDEGRRETTVYRGLVQKRGKKQLGSLKKKFKSHHRKPKSFSSCKQPG [SURF2]”, in the series on HeLa Kyoto [1], the “solubility change mitosis (log2)” value was found to be 0.0916. In the series with HeLa Kyoto [2], the “solubility in G1/S (log2)” value is 0.0911. The melting temperature came out at 50.7 °C with HeLa Kyoto [3] (cell cycle stage: G1/S) and 50.3 °C with HeLa Kyoto [3] (cell cycle stage: mitosis). Moreover, the thermal stability score was 0.779 in the series with HeLa Kyoto [4] (setting [5]) and 0.703 in the series with HeLa Kyoto [4] (cell cycle stage: mitosis).
